Legend:
[1] = molecular target: HA of H5N1 A/turkey/Turkey/05 virus (Influenza A virus H5N1 …); experiment: cell-based or functional assay
[2] = molecular target: T1, recombinant HA of full length H3 (A/Aichi/2/1968, full length) (Influenza A virus H3N2 A/Aichi/2/1968 …, UniProt P03437 17-530); experiment: ELISA; antigen coated 1 µg/ml; recombinant antibody; parameters: concentration or dose not given beside the values
T1 construct: domain: full length; also called H3N2 A/Aichi/2/1968 Full length; full-length H3 HA protein

[3] = molecular target: HA of Influenza H1N1 (A/Hawaii/31/2007), on infected MDCK-SIAT cells or on virus (Influenza A virus H1N1 A/Hawaii/31/2007); experiment: cell-based or functional assay
HA of H3N2 HKX-31 virus = HA of H3N2 HKX-31 virus (Influenza A virus H3N2 HKX-31); experiment: cell-based or functional assay

Binder	IC50, in vitro virus neutralization on MDCK cells [1] [µg/mL]	OD 450 nm [2] [OD 450 nm]	IC50, in vitro virus neutralization on MDCK-SIAT cells [3] [µg/mL]	IC50, in vitro virus neutralization on MDCK-SIAT cells (HA of H3N2 HKX-31 virus) [µg/mL]
AT10-005 (antibody, V domains shown) VH: QVQLVQSGAEVKKPGSSVKVSCKASGGAFSNYAISWVRQAPGQGLEWMGGIIPIFGTTNYAQKFQGRVTITADKFTTIAYMELRSLRSEDTAVYYCARHGGVYYYGSASSGWFDPWGQGTLVTVSS VL: EIVLTQSPGTLSLSPGERATLSCRASQSVSSSYLAWYQQKPGQAPRLLIFGASTRATGIPDRFSGSGSGTDFTLTISRLEPEDFAVFYCQQYGSLPLTFGGGTKVEIKG	1.3	–	–	–
AT10-004 (antibody, V domains shown) VH: QVQLVQSGAEVRKPGASVKVSCKASGYTFTRHGISWVRQAPGQGLEWMGWISAYTGDTDYAQKFQGRVTMTTDTSTNTAYMELRSLRSDDAAVYYCARLRLQGEVVVPPSQSNWFDPWGQGTLVTVSS VL: EIVLTQSPATLSLYPGERATLSCRASQSVSRYLAWYQQKPGQAPRLLIYDASNRATGIPARFSGSGSGTDFTLTISSLEPEDFAVYYCQQRSNWLKITFGQGTRLEIKG	–	0.491	–	–
AT10-001 (antibody, V domains shown) VH: EVQLLESGGGLVQPGGSLRLSCAASGFSFSTYAMSWVRQAPGKGLEWVSGISGSGESTYYADSVKGRFTVSRDNSKNTLYLQMNSLRAEDTAVYYCAKQGDHIAWLLRGINFDYWGQGVLVTVSS VL: EIVLTQSPGTLSLSPGERATLSCRASQSVSSSYLAWYQQKPGQAPRLLIYGASTRATGIPDRFSGRGSGTDFTLTISSLEPEDFAVYYCQNYGSPFLFTFGPGTKVDIKR	> 15	0.953	> 15	2.1
AT10-002 (antibody, V domains shown) VH: QLQLQESGPRLVKPSETLSLTCSVSGVSISSSNYYWGWIRQPPGKGLEWIGTIYHSGSTYYNPSLKSRLIISVDTSKNQFYLQLTSLTAADSAVYYCATGGGFGWSQTYFGYWGQGTLVTASS VL: QSALTQPASVSGSPGQSITISCTGTSSDVGAYNYVSWYQHHPGKAPKLMIYDVTYRPSGVSTRFSGSKSGNTASLTISGLQAEDEADYYCSSQSRSSTLVIFGGGTKLTVLG	> 15	0.92	–	0.25
AT10-003 (antibody, V domains shown) VH: QVHLVQSGAEVRKPGASVKVSCKVSGYTLNELSIHWLRQAPGRGLEWMGSFDPEDGETIYAQKFQGRVTMTGDTSTDTAYLELTSLRSEDTALYYCARGWGAVTSPFDFWGQGTLVTVSS VL: DIVMTQSPLSLPVTPGEPASISCRSSQSLLHSNGHIYFDWYLQKPGQSPQLLIYLVSKRASGVPDRFSGSGSGTDFTLKISRVEAEDVGVYYCMQALETPFTFGPGTKVHIKR	> 15	1.32	–	> 15

— patent publication US20150010566A1 (AIMM THERAPEUTICS B V, published 2015)
